Measured values from patent publication US20060287501A1 (Pieris, published 2006).

Assays:
[1] = molecular target: T1, recombinant Nogo-A fragment NI-Fr4 (rat, UniProt Q9JK11 233-941); test: SPR (Biacore X); NI-Fr4 on Ni/NTA chip via His6, Fab (pASK107, Strep-tag II) at 0.25-6.8 µM, equilibrium fit
T1 construct: Truncated rat Nogo-A with N-terminal Strep-tag II and C-terminal His6
T1 sequence: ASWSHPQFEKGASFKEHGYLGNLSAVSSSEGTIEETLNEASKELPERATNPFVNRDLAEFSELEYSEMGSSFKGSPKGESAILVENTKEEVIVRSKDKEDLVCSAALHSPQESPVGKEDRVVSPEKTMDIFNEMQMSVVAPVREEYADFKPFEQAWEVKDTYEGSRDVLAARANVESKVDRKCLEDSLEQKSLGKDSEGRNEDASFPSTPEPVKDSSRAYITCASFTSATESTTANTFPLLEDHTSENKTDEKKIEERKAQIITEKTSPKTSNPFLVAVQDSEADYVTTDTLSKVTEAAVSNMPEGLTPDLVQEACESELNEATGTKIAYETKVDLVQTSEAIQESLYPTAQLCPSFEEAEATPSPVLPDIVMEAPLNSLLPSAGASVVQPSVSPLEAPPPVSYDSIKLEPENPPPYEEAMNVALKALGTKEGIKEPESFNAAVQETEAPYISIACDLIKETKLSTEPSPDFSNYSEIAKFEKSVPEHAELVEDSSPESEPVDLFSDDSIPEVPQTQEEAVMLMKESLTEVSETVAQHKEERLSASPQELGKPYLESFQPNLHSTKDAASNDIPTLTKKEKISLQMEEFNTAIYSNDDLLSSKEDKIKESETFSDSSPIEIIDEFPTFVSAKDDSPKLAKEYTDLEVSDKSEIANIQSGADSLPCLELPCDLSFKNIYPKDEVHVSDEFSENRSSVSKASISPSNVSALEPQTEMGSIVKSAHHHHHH
Protocol: The thermodynamic affinity for the recombinant Nogo-A fragment NI-Fr4 was determined both for the II.1.8 mutant and for the wild-type IN-1 Fab fragment using the method of real time surface plasmon resonance (SPR) on a Biacore-X® system equipped with an Ni/NTA-derivatized sensor chip® (Biacore AB, Uppsala, Sweden). PBS containing 0.005% (v/v) surfactant P20 was used as continuous flow buffer as well as for dilution of proteins. Analysis was performed at 25° C. using a flow rate of 35 μl/min.
Then the Fab fragment (produced by means of the vector pASK107 and purified via the Strep-tag II; see Example 1)) was injected at a defined concentration (between 0.25 and 6.8 μM) for 2 minutes, followed by buffer flow for 4 minutes. The chip surface was regenerated using 70 μl 0.35 M EDTA, pH 8.0 in flow buffer prior to the next measurement. Each time-dependent binding isotherm of the Fab fragment was corrected for the background signal that was detected in the flow channel without NI-Fr4 using BIAevaluation software (Version 3.0). Resonance unit values for the bound Fab fragment at equilibrium for each applied concentration were then deduced and fitted (Voss and Skerra, supra) by non-linear least squares regression using an equation of the type y=a*x/(b+x). […]

[2] = molecular target: T2, recombinant Nogo-A fragment NI-Fr2 (rat, UniProt Q9JK11 233-941, labelled with digoxigenin (molar ratio 5:1) in the colony screening assay); test: ELISA; NI-Fr2 coated, purified Fab (pASK88, His6), anti-human Ckappa-AP detection
T2 construct: Truncated rat Nogo-A with C-terminal Strep-tag, made in the E. coli periplasm; also called MI-Fr2; wild-type NI-Fr2
T2 sequence: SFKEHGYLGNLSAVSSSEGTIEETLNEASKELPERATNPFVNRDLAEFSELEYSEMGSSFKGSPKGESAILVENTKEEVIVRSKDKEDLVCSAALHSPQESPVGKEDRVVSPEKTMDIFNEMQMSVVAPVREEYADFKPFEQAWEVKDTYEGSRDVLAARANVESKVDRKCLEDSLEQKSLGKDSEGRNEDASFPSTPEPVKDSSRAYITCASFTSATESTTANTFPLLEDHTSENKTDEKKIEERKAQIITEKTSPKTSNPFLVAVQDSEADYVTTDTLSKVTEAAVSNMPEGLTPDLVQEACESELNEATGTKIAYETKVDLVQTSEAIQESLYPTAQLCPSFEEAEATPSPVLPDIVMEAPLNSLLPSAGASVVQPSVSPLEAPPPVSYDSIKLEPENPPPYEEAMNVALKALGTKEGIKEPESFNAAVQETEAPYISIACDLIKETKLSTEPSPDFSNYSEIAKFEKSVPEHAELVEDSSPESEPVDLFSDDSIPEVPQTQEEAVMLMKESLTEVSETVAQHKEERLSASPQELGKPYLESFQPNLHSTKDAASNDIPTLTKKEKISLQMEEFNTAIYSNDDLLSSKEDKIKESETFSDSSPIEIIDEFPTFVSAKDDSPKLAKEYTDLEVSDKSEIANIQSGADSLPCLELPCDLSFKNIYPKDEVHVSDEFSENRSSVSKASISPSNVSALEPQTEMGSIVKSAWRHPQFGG

[3] = molecular target: T2, recombinant Nogo-A fragment NI-Fr2; test: ELISA, wells coated with NI-Fr2, bound Fab detected with anti-human Ckappa antibody-alkaline phosphatase, delta A405/delta t
Protocol: Antigen-binding activity of the mutant Fab fragments was subsequently tested by ELISA using the recombinant NI-Fr2 for coating of the microtitre plate wells (FIG. 2).
ELISA was carried out in a 96 well microtitre plate (Becton Dickinson, Heidelberg, Germany) at ambient temperature with incubation steps of 1 h unless otherwise stated. Three washing steps with PBS/T were used after each incubation, and residual liquid was removed thoroughly. The wells were coated for 4 h with 50 μl of a solution of MI-Fr2 at concentrations between 180 and 200 μg/ml in PBS buffer and then blocked with 200 μl 3% (w/v) BSA, 0.5% (v/v) Tween 20 in PBS. After washing, 50 μl of the purified recombinant Fab fragment was applied at a dilution series in PBS/T. The wells were then incubated with 50 μl anti-human Cκ antibody conjugated with alkaline phosphatase (Sigma), diluted 1:1000 in PBS/T. Signals were finally developed in the presence of p-nitrophenyl phosphate (Voss and Skerra, (1997) Protein Eng., 10, 975-982). Enzymatic activity was measured at 25° C. as the change in absorbance at 405 nm per min with a SpectraMAX 250 instrument (Molecular Devices, Sunnyvale, Calif.). The data were corrected for background values determined in wells that were merely coated with BSA and fitted by non-linear least squares regression as described by Voss and Skerra, supra

[4] = molecular target: T3, mutant of NI-Fr2 devoid of Cys^574 and Cys^676 (rat, UniProt Q9JK11 233-940, labelled with digoxigenin in the colony screening assay); test: filter-sandwich colony screening assay; Fab-ABD (pASK106) captured on HSA membrane, labelled NI-Fr2 mutant (no Cys574, Cys676) at 30 µg/ml
T3 sequence: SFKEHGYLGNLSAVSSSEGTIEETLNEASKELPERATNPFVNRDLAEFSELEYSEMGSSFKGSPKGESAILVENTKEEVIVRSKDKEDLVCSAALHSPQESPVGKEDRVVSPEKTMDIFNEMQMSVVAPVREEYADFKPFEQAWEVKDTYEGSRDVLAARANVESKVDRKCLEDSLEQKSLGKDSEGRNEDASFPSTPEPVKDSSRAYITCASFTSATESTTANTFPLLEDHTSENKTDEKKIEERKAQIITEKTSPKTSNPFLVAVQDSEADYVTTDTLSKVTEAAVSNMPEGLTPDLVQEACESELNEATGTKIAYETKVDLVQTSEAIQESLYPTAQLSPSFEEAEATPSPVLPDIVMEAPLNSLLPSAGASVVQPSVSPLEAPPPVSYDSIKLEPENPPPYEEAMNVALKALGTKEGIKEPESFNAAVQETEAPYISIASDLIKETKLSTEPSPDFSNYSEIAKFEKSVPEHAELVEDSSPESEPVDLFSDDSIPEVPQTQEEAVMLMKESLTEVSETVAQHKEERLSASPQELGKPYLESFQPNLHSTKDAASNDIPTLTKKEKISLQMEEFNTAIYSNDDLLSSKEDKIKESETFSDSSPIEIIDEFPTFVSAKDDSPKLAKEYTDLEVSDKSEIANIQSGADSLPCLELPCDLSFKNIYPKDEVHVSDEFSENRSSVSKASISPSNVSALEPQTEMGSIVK
Protocol: The first membrane, carrying tiny colonies of the transformed cells, was then placed onto the second (hydrophobic) membrane. The filter sandwich was incubated for 16 h at 22° C. During this period the mutated IN-1 Fab fragments became secreted—and partially released from the colonies by leakage from the bacterial periplasm—and finally immobilized on the lower membrane via complex formation between HSA and ABD.
The first membrane with the still viable colonies was transferred to a fresh LB/Amp agar plate and stored at 4° C. The second membrane was washed three times in PBS containing 0.1% (v/v) Tween 20 (PBS/T) and the immobilized Fab fragments, each in a spot 30 corresponding to the position of the original colony, were probed for antigen binding. To this end recombinant Nogo-A fragment NI-FR2 was labeled at a molar ratio of 5:1 with digoxigenin-3-O-methylcarbonyl-e-aminocaproic acid N-hydroxy-succinimide ester (Roche Diagnostics, Mannheim, Germany) and applied to the membrane for one hour at a concentration of 30 or 50 μg/ml in PBS/T. After washing three times with PBS/T the membrane was incubated for one hour with 0.75 u/ml anti-digoxigenin Fab fragment conjugated with alkaline phosphatase (Roche Diagnostics) in 10 ml PBS/T. The membrane was finally washed twice with PBS/T and twice with PBS and the signals were developed using standard chromogenic substrates as described (Schlehuber et al., supra). Colonies corresponding to signals with an intensity above average were identified, recovered from the first membrane, and propagated for further analysis of their recombinant gene product.
CDR-L3 forms a connecting loop between two neighboring beta-strands such that the positions L91 and L92 are in close spatial proximity with L96. […] This time the stringency of selection was raised by lowering the concentration of the recombinant antigen - a mutant of NI-Fr2 devoid of Cys⁵⁷⁴ and Cys⁶⁷⁶—from 50 μg/ml to 30 μg/ml.

Binder | binding result [4] | further results
recombinant wild-type IN-1 Fab fragment (Fab, V domains shown, Formats: pASK106 (ABD on light chain) in the colony screen, pASK88 (His6 on heavy chain) in ELISA, staining and neurite assay, pASK107 (Strep-tag II) in SPR; also called IN-1 wt; IN-1 (wild-type) Fab fragment) VH: EVKLHESGPGLVRPGTSVKISCKASGYTFTNYWLGWVKQRPGHGLEWIGDIYPGGGYTNYNEKFKGKATLTADTSSSTAYMQLSSLTSEDSAVYFCARFYYGSSYWYFDVWGQGTTVTVSS VL: DIELTQSPAIMAASVGETVTITCGASENIYGALNWYQRKQGKSPQLLIYGATNLADGMSSRFSGSGSGRQYSLKISSLHPDDVATYYCQNVLSTPRTFGAGTKLEIK | – | Kd [1]: 7.8 µM
I.1.4 Fab fragment (IN-1 mutant) (Fab, V domains shown, Chimeric Fab, human IgG1/kappa constant domains) VH: EVKLHESGPGLVRPGTSVKISCKASGYTFTNYWLGWVKQRPGHGLEWIGDIYPGGGYTNYNEKFKGKATLTADTSSSTAYMQLSSLTSEDSAVYFCARFYYGSSYWYFDVWGQGTTVTVSS VL: DIELTQSPAIMAASVGETVTITCGASENIYGALNWYQRKQGKSPQLLIYGATNLADGMSSRFSGSGSGRQYSLKISSLHPDDVATYYCQNVLPVPWTFGAGTKLEIK | – | binding result [2]: binds
I.2.6(L96V) Fab fragment (Fab, V domains shown, Chimeric Fab, human IgG1/kappa constant domains; also called I.2.6(^L96Val) Fab fragment; replacement Cys^L96->Val) VH: EVKLHESGPGLVRPGTSVKISCKASGYTFTNYWLGWVKQRPGHGLEWIGDIYPGGGYTNYNEKFKGKATLTADTSSSTAYMQLSSLTSEDSAVYFCARFYYGSSYWYFDVWGQGTTVTVSS VL: DIELTQSPAIMAASVGETVTITCGASENIYGALNWYQRKQGKSPQLLIYGATNLADGMSSRFSGSGSGRQYSLKISSLHPDDVATYYCQNVLRVPVTFGAGTKLEIK | – | binding result [3]: binds
II.1.1 Fab fragment (Fab, V domains shown, Chimeric Fab, human IgG1/kappa constant domains) VH: EVKLHESGPGLVRPGTSVKISCKASGYTFTNYWLGWVKQRPGHGLEWIGDIYPGGGYTNYNEKFKGKATLTADTSSSTAYMQLSSLTSEDSAVYFCARFYYGSSYWYFDVWGQGTTVTVSS VL: DIELTQSPAIMAASVGETVTITCGASENIYGALNWYQRKQGKSPQLLIYGATNLADGMSSRFSGSGSGRQYSLKISSLHPDDVATYYCQNRKRVPVTFGAGTKLEIK | binds | –
II.1.3 Fab fragment (Fab, V domains shown, Chimeric Fab, human IgG1/kappa constant domains) VH: EVKLHESGPGLVRPGTSVKISCKASGYTFTNYWLGWVKQRPGHGLEWIGDIYPGGGYTNYNEKFKGKATLTADTSSSTAYMQLSSLTSEDSAVYFCARFYYGSSYWYFDVWGQGTTVTVSS VL: DIELTQSPAIMAASVGETVTITCGASENIYGALNWYQRKQGKSPQLLIYGATNLADGMSSRFSGSGSGRQYSLKISSLHPDDVATYYCQNMKRVPVTFGAGTKLEIK | binds | –
II.1.7 Fab fragment (Fab, V domains shown, Chimeric Fab, human IgG1/kappa constant domains) VH: EVKLHESGPGLVRPGTSVKISCKASGYTFTNYWLGWVKQRPGHGLEWIGDIYPGGGYTNYNEKFKGKATLTADTSSSTAYMQLSSLTSEDSAVYFCARFYYGSSYWYFDVWGQGTTVTVSS VL: DIELTQSPAIMAASVGETVTITCGASENIYGALNWYQRKQGKSPQLLIYGATNLADGMSSRFSGSGSGRQYSLKISSLHPDDVATYYCQNLKRVPVTFGAGTKLEIK | binds | –
